Data taken from patent US20050106141A1, “Hairless protein-interacting partner complexes and methods thereof for the beautification and/or improvement of mammalian skin” (The Procter & Gamble Company, priority 2003, published 2005).

Molecular target: LexA BD-HRt (mouse)
Assay: yeast two-hybrid library screen; number of positive clones with this identity

Sequence of LexA BD-HRt (mouse) (P0A7C2 other isoform, or with tags, fused parts or gaps limits assumed): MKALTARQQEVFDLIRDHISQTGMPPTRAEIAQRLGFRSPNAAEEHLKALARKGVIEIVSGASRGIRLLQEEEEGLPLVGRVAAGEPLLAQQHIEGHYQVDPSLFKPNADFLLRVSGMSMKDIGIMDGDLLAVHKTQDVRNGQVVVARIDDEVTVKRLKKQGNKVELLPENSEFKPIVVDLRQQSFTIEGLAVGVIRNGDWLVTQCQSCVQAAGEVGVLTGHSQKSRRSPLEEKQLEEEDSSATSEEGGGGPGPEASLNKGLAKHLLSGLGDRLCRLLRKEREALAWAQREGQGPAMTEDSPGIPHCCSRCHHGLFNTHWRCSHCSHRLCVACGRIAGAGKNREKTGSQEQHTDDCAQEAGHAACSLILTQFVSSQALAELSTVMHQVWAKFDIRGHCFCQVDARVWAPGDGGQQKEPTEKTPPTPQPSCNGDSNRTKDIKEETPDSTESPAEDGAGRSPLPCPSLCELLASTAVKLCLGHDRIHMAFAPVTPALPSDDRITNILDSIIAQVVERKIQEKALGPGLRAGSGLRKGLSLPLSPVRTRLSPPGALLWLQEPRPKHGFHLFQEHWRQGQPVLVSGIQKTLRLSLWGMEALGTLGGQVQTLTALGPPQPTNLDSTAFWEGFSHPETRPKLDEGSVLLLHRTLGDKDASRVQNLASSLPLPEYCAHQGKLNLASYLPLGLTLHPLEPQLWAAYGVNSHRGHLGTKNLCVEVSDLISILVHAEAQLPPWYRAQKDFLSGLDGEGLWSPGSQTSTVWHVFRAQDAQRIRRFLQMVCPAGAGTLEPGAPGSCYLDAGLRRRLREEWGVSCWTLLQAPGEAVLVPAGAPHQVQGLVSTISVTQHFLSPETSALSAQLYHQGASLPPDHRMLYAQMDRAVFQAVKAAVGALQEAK

Hits: 1
Substance: Homo Sapiens HIC Protein Isoform P32 and Isoform 40 (from UniProt Q9P1T7 1-246)
